Measured values: patent US20080038775A1 (published 2008)

Tests used:
[1] = target: LRP5 protein (form not named at the place) (UniProt O75197); test: cell-based or functional assay
[2] = target: T1, LRP5prop3,4LBD V5His (propellers 3 and 4 and ligand binding domain of LRP5, amino acids 642 to 1376 of … (UniProt O75197 642-1376)); test: TR-FRET (anti-V5-Eu / anti-myc-Cy5), apparent Kd, concentrations of Dkk1 and LRP5prop34LBD varied, 50 mM PIPES pH 6.5
T1 construct: range 642-1376; Secreted from HEK293T cells co-transfected with RAP; also called LRP5VHis prop3,4; not shown: V5 (and His) tag from the pcDNA3.1/V5 expression vector
T1 sequence (looked up): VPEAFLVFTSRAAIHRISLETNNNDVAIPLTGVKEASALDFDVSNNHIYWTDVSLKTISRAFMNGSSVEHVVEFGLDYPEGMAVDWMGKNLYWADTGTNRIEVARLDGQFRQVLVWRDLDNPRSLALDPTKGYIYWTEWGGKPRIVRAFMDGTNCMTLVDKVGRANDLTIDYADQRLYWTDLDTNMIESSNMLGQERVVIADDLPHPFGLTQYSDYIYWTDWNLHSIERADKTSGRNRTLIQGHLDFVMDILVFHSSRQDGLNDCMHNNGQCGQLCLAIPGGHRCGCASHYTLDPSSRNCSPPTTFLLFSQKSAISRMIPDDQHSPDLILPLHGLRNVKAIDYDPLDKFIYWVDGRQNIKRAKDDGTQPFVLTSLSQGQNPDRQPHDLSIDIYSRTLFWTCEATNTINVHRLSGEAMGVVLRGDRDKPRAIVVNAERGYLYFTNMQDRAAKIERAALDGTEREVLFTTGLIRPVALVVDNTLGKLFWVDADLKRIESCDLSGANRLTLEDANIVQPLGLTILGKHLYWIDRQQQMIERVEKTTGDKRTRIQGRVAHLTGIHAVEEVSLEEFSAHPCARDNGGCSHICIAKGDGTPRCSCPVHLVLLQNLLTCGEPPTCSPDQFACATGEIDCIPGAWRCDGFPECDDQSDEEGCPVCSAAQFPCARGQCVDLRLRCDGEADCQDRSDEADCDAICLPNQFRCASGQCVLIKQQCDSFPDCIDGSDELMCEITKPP
Procedure: The time resolved fluorescence resonance energy transfer (TR-FRET) platform was chosen to develop an assay for Dkk1-LRP5prop34LBD interaction because the TR-FRET assay is highly sensitive, easy to set up and capable of detecting weak interactions. For this assay, two labeled molecules are added to the system. If an interaction occurs, the labels are brought into close proximity and energy transfer occurs to release energy at specific wavelengths that can be detected. For detection of interaction between Dkk1 and LRP5prop34LBD, the Dkk1 (tagged with myc) is effectively labeled using a Cy5 labeled monoclonal anti-myc antibody. […] Cy5 absorbs at 615 nm and emits energy at 665 nm which is detected. The measurement was conducted on a Wallac EnVision 2100 Multilabel Reader from PerkinElmer Life Science. […] The interaction between Dkk1 and LRP5prop3,4LBD is expressed as the ratio of fluorescence intensity at 665 nm over 615 nm, which represents the energy transfer from the europium to Cy5 dye. […]
Kdapp Determination. The observed Kdapp was determined by varying concentrations of Dkk1 and LRP5prop34LBD in the reaction mixture containing 50 mM PIPES (pH 6.5), 0.5 mM DTT, 0.01% Tween-20, 0.5 nM V5-mAb-Eu, and 15 nM ,myc-Ab-Cy5. […] Kd-value determined here is a Kdapp-value as the antibody concentration is limiting in the assay. […]

[3] = target: T1, LRP5prop3,4LBD V5His (propellers 3 and …); test: TR-FRET competition; untagged R&D Dkk1 titrated against myc-tagged Dkk1 binding to LRP5prop34LBD
Procedure: The time resolved fluorescence resonance energy transfer (TR-FRET) platform was chosen to develop an assay for Dkk1-LRP5prop34LBD interaction because the TR-FRET assay is highly sensitive, easy to set up and capable of detecting weak interactions. For this assay, two labeled molecules are added to the system. If an interaction occurs, the labels are brought into close proximity and energy transfer occurs to release energy at specific wavelengths that can be detected. For detection of interaction between Dkk1 and LRP5prop34LBD, the Dkk1 (tagged with myc) is effectively labeled using a Cy5 labeled monoclonal anti-myc antibody. The LRP5prop34LBD (tagged with V5) is effectively labeled using a Europium labeled monoclonal anti-V5 antibody. Europium is excited at 340 nm and re-emits energy at 615 nm. Cy5 absorbs at 615 nm and emits energy at 665 nm which is detected. The measurement was conducted on a Wallac EnVision 2100 Multilabel Reader from PerkinElmer Life Science. […] The interaction between Dkk1 and LRP5prop3,4LBD is expressed as the ratio of fluorescence intensity at 665 nm over 615 nm, which represents the energy transfer from the europium to Cy5 dye. […]
Dkk1 without a myc tag was purchased from R&D Inc. and is a Dkk1 synthesized in a baculovirus/insect cell system. […] The data were analyzed with Grafit 5 (Erithacus Software).

B1: Dkk1mycHis (wild-type human Dkk1 with C-terminal c-myc and His6 tags, secreted by HEK293T cells; used purified or as conditioned media) (ligand)
chain: ATLNSVLNSNAIKNLPPPLGGAAGHPGSAVSAAPGILYPGGNKYQTIDNYQPYPCAEDEECGTDEYCASPTRGGDAGVQICLACRKRRKRCMRHAMCCPGNYCKNGICVSSDQNHFRGEIEETITESFGNDHSTLDGYSRRTTLSSKMYHTKGQEGSVCLRSSDCASGLCCARHFWSKICKPVLKEGQVCTKHRRKGSHGLEIFQRCYCGEGLSCRIQKDHHQASNSSRLHTCQRHSRGPFEQKLISEEDLNMHTGHHHHHH
modifications: N-linked glycosylation (mammalian pattern); 125I-labelled by the chloramine-T method only in the radioligand assay of Example 10
notes: Secreted protein; also called WT; wild-type Dkk1
[1]
  activity in the TCF luciferase assay compared with baculovirus Dkk1 (FIG. 4) (% greater activity than R&D Systems Dkk1): 25
[2]
  Kd: 11.8 nM

B2: Recombinant human Dkk1 from R&D Systems (Cat. No. 1096-DK/CF), baculovirus/insect cell derived (ligand, UniProt O94907 32-266, looked up)
chain: TLNSVLNSNAIKNLPPPLGGAAGHPGSAVSAAPGILYPGGNKYQTIDNYQPYPCAEDEECGTDEYCASPTRGGDAGVQICLACRKRRKRCMRHAMCCPGNYCKNGICVSSDQNHFRGEIEETITESFGNDHSTLDGYSRRTTLSSKMYHTKGQEGSVCLRSSDCASGLCCARHFWSKICKPVLKEGQVCTKHRRKGSHGLEIFQRCYCGEGLSCRIQKDHHQASNSSRLHTCQRH
modifications: 125I-labelled in the radioligand assay of Example 10 only
notes: Bought protein; no myc tag; also called R&D Dkk1; R&D Systems Dkk1
[3]
  IC50: 1.42 nM
